The supplement of paper PMC10065799, “High-throughput profiling of sequence recognition by tyrosine kinases and SH2 domains using bacterial peptide display” (eLife, 2023)
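Wherever SH2 binding enrichment of the phosphorylated peptide, bacterial display is given: peptide library displayed on the E. coli surface as eCPX fusions, selected cells deep-sequenced, score is each peptide's frequency after selection divided by its frequency in the input.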
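Wherever phosphorylation enrichment, bacterial display is given: 11-residue human phosphosite peptides and single-mutation variants displayed on the E. coli surface, counted by deep sequencing, each peptide's frequency after selection divided by its frequency in the unselected input library; frequency after pTyr selection over input frequency; kinase dosed for 20-30% of maximal phosphorylation in three min.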

Each sequence was assayed on c-Src (assay: phosphorylation enrichment, bacterial display (enrichment ratio); higher = better substrate or ligand; peptides without Tyr show the background).
Sequence ANAYIYVVQLP [L1CAM_Y420] has a phosphorylation enrichment of 1.04. Work on NGSFLYVIISQ [LRP1B_Y1988_R1987L] yielded a phosphorylation enrichment of 0.403. Work on FRIGPYQPSVP [MATR3_Y784_N787S_YF] yielded a phosphorylation enrichment of 0.478. Work on AEVDTYCRHNY [HLA-DRB1_Y107_A103E] yielded a phosphorylation enrichment of 0.537. With EQKKYYNATKK [SCN5A_Y1495_M1498T] the phosphorylation enrichment was 0.411. In the case of RGMVMYTSKDR [ZG16B_Y136], the phosphorylation enrichment is reported as 0.533. In the case of SRLDSYVRSLP [TRAPPC1_Y133], the phosphorylation enrichment is reported as 0.448. PLRAYYLIARV [HLCS_Y635_D634Y] showed a phosphorylation enrichment of 0.362. Sequence LLIVEYAKYGS [RET_Y806] has a phosphorylation enrichment of 1.23. In the case of SGPRRYTIATL [TTR_Y125_A129T], the phosphorylation enrichment is reported as 0.375. Sequence TNDRLYLRSLE [MTM1_Y71_Y68D] has a phosphorylation enrichment of 0.535. For GGPTYYIDTNA [ACTL6A_Y69], the phosphorylation enrichment was 0.778. RAFRHYLLKQK [SCN2A_Y1919_R1918H_YF] showed a phosphorylation enrichment of 0.907. Work on RTCSSYAIEKI [PARP15_Y520] yielded a phosphorylation enrichment of 0.383. With TTPGPYRSIFF [MPG_Y71_YF] the phosphorylation enrichment was 0.728. PPPPAYDDMAQ [TNK2_Y635_V638M] was tested, and the phosphorylation enrichment was 0.526. With PVKAAYQKVVA [HBB_Y131_Q128K] the phosphorylation enrichment was 0.753. Sequence SVVVPCEPPEV [TP53_Y220_Y220C] has a phosphorylation enrichment of 0.481. For RSAGKYDVFFI [MECP2_Y120_L124F_YF], the phosphorylation enrichment was 0.751. Sequence KDHPDYKFQRR [SOX10_Y171_P175R_YF] has a phosphorylation enrichment of 0.446. EATKVYLDDPT [G6PD_Y322_G321V] showed a phosphorylation enrichment of 0.357. With EATKGHLDDPT [G6PD_Y322_Y322H] the phosphorylation enrichment was 0.453. SLESAYPEVSQ [TTF1_Y357_G360V] showed a phosphorylation enrichment of 0.523. RYLTRYIYNRE [HLA-DQB1_Y62_V59L] showed a phosphorylation enrichment of 1.57. FGYPGYQCKHY [TIMP3_Y177_S179C] showed a phosphorylation enrichment of 0.428. With ESMQSYDLDYP [UNC13B_Y243_D238E] the phosphorylation enrichment was 0.544. DEEFEYMNRRR [ERBB3_Y1199_YF] gave a phosphorylation enrichment of 0.564. AHAGEHGAEAL [HBA1_Y25_Y25H] showed a phosphorylation enrichment of 0.461. With MSSHHCDYKKY [ZNF445_Y428_Y428C] the phosphorylation enrichment was 0.452. KPLMPCMRYSR [SMARCE1_Y73_Y73C] was tested, and the phosphorylation enrichment was 0.444. In the case of PSDPSYEDTRE [BMPR1A_Y467_M470T], the phosphorylation enrichment is reported as 1.14. QQPGPYDRPGA [HNRNPH2_Y210_R206Q] was tested, and the phosphorylation enrichment was 0.577. IKAGAYDFPSL [CAMK2A_Y230_P235L] gave a phosphorylation enrichment of 0.388.

What follows are sequences tested against Grb2 SH2 (UniProt P62993) (assay: SH2 binding enrichment of the phosphorylated peptide, bacterial display (enrichment ratio); higher = better substrate or ligand; peptides without Tyr show the background).
Sequence of Grb2 SH2 (P62993 whole entry, looked up): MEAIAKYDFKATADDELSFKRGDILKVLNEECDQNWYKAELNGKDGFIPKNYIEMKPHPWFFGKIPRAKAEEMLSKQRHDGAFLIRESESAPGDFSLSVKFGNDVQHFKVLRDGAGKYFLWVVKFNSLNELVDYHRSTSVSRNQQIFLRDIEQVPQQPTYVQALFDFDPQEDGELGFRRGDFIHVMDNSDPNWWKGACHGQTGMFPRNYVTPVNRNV
ANAYIYVVQLP [L1CAM_Y420] showed an SH2 binding enrichment of 1.37. NGSFLYVIISQ [LRP1B_Y1988_R1987L] gave an SH2 binding enrichment of 0.68. FRIGPYQPSVP [MATR3_Y784_N787S_YF] showed an SH2 binding enrichment of 0.843. AEVDTYCRHNY [HLA-DRB1_Y107_A103E] showed an SH2 binding enrichment of 0.939. Sequence EQKKYYNATKK [SCN5A_Y1495_M1498T] has an SH2 binding enrichment of 1.16. With RGMVMYTSKDR [ZG16B_Y136] the SH2 binding enrichment was 0.697. In the case of SRLDSYVRSLP [TRAPPC1_Y133], the SH2 binding enrichment is reported as 0.725. In the case of PLRAYYLIARV [HLCS_Y635_D634Y], the SH2 binding enrichment is reported as 1.67. Work on LLIVEYAKYGS [RET_Y806] yielded an SH2 binding enrichment of 1.83. SGPRRYTIATL [TTR_Y125_A129T] gave an SH2 binding enrichment of 0.803. With TNDRLYLRSLE [MTM1_Y71_Y68D] the SH2 binding enrichment was 0.855. GGPTYYIDTNA [ACTL6A_Y69] was tested, and the SH2 binding enrichment was 0.822. RAFRHYLLKQK [SCN2A_Y1919_R1918H_YF] gave an SH2 binding enrichment of 0.939. For RTCSSYAIEKI [PARP15_Y520], the SH2 binding enrichment was 0.938. Work on TTPGPYRSIFF [MPG_Y71_YF] yielded an SH2 binding enrichment of 0.997. Work on PPPPAYDDMAQ [TNK2_Y635_V638M] yielded an SH2 binding enrichment of 0.699. For PVKAAYQKVVA [HBB_Y131_Q128K], the SH2 binding enrichment was 0.968. SVVVPCEPPEV [TP53_Y220_Y220C] showed an SH2 binding enrichment of 1.02. RSAGKYDVFFI [MECP2_Y120_L124F_YF] gave an SH2 binding enrichment of 1.28. KDHPDYKFQRR [SOX10_Y171_P175R_YF] gave an SH2 binding enrichment of 1. In the case of EATKVYLDDPT [G6PD_Y322_G321V], the SH2 binding enrichment is reported as 0.837. For EATKGHLDDPT [G6PD_Y322_Y322H], the SH2 binding enrichment was 0.815. Sequence SLESAYPEVSQ [TTF1_Y357_G360V] has an SH2 binding enrichment of 0.764. Sequence RYLTRYIYNRE [HLA-DQB1_Y62_V59L] has an SH2 binding enrichment of 1.11. FGYPGYQCKHY [TIMP3_Y177_S179C] was tested, and the SH2 binding enrichment was 0.916. In the case of ESMQSYDLDYP [UNC13B_Y243_D238E], the SH2 binding enrichment is reported as 0.681. With DEEFEYMNRRR [ERBB3_Y1199_YF] the SH2 binding enrichment was 0.842. Work on AHAGEHGAEAL [HBA1_Y25_Y25H] yielded an SH2 binding enrichment of 0.782. MSSHHCDYKKY [ZNF445_Y428_Y428C] showed an SH2 binding enrichment of 0.962. Work on KPLMPCMRYSR [SMARCE1_Y73_Y73C] yielded an SH2 binding enrichment of 0.808. PSDPSYEDTRE [BMPR1A_Y467_M470T] was tested, and the SH2 binding enrichment was 1.77. QQPGPYDRPGA [HNRNPH2_Y210_R206Q] gave an SH2 binding enrichment of 0.905. For IKAGAYDFPSL [CAMK2A_Y230_P235L], the SH2 binding enrichment was 0.774.

The sequences below were run against SHP2-C SH2 in the same assay as above.
With ANAYIYVVQLP [L1CAM_Y420] the SH2 binding enrichment was 1.44. With NGSFLYVIISQ [LRP1B_Y1988_R1987L] the SH2 binding enrichment was 0.546. In the case of FRIGPYQPSVP [MATR3_Y784_N787S_YF], the SH2 binding enrichment is reported as 0.782. For AEVDTYCRHNY [HLA-DRB1_Y107_A103E], the SH2 binding enrichment was 0.838. EQKKYYNATKK [SCN5A_Y1495_M1498T] was tested, and the SH2 binding enrichment was 1.04. For RGMVMYTSKDR [ZG16B_Y136], the SH2 binding enrichment was 0.584. With SRLDSYVRSLP [TRAPPC1_Y133] the SH2 binding enrichment was 0.531. Work on PLRAYYLIARV [HLCS_Y635_D634Y] yielded an SH2 binding enrichment of 1.69. Work on LLIVEYAKYGS [RET_Y806] yielded an SH2 binding enrichment of 1.28. SGPRRYTIATL [TTR_Y125_A129T] was tested, and the SH2 binding enrichment was 0.723. In the case of TNDRLYLRSLE [MTM1_Y71_Y68D], the SH2 binding enrichment is reported as 0.6. For GGPTYYIDTNA [ACTL6A_Y69], the SH2 binding enrichment was 0.694. Sequence RAFRHYLLKQK [SCN2A_Y1919_R1918H_YF] has an SH2 binding enrichment of 0.439. For RTCSSYAIEKI [PARP15_Y520], the SH2 binding enrichment was 0.855. TTPGPYRSIFF [MPG_Y71_YF] gave an SH2 binding enrichment of 3.79. Sequence PPPPAYDDMAQ [TNK2_Y635_V638M] has an SH2 binding enrichment of 0.543. Sequence PVKAAYQKVVA [HBB_Y131_Q128K] has an SH2 binding enrichment of 0.879. SVVVPCEPPEV [TP53_Y220_Y220C] gave an SH2 binding enrichment of 0.886. Sequence RSAGKYDVFFI [MECP2_Y120_L124F_YF] has an SH2 binding enrichment of 0.794. KDHPDYKFQRR [SOX10_Y171_P175R_YF] gave an SH2 binding enrichment of 0.701. EATKVYLDDPT [G6PD_Y322_G321V] was tested, and the SH2 binding enrichment was 0.746. Sequence EATKGHLDDPT [G6PD_Y322_Y322H] has an SH2 binding enrichment of 0.6. In the case of SLESAYPEVSQ [TTF1_Y357_G360V], the SH2 binding enrichment is reported as 0.607. Work on RYLTRYIYNRE [HLA-DQB1_Y62_V59L] yielded an SH2 binding enrichment of 0.763. For FGYPGYQCKHY [TIMP3_Y177_S179C], the SH2 binding enrichment was 0.876. ESMQSYDLDYP [UNC13B_Y243_D238E] showed an SH2 binding enrichment of 0.538. DEEFEYMNRRR [ERBB3_Y1199_YF] was tested, and the SH2 binding enrichment was 0.799. AHAGEHGAEAL [HBA1_Y25_Y25H] was tested, and the SH2 binding enrichment was 0.763. With MSSHHCDYKKY [ZNF445_Y428_Y428C] the SH2 binding enrichment was 0.665. In the case of KPLMPCMRYSR [SMARCE1_Y73_Y73C], the SH2 binding enrichment is reported as 0.558. PSDPSYEDTRE [BMPR1A_Y467_M470T] showed an SH2 binding enrichment of 1.52. QQPGPYDRPGA [HNRNPH2_Y210_R206Q] was tested, and the SH2 binding enrichment was 0.689. Work on IKAGAYDFPSL [CAMK2A_Y230_P235L] yielded an SH2 binding enrichment of 0.626.

Each sequence was assayed against c-Src SH2 in the same assay as above.
With ANAYIYVVQLP [L1CAM_Y420] the SH2 binding enrichment was 0.814. Sequence NGSFLYVIISQ [LRP1B_Y1988_R1987L] has an SH2 binding enrichment of 0.47. Sequence FRIGPYQPSVP [MATR3_Y784_N787S_YF] has an SH2 binding enrichment of 0.657. AEVDTYCRHNY [HLA-DRB1_Y107_A103E] gave an SH2 binding enrichment of 0.699. Sequence EQKKYYNATKK [SCN5A_Y1495_M1498T] has an SH2 binding enrichment of 0.731. RGMVMYTSKDR [ZG16B_Y136] was tested, and the SH2 binding enrichment was 0.648. With SRLDSYVRSLP [TRAPPC1_Y133] the SH2 binding enrichment was 0.546. With PLRAYYLIARV [HLCS_Y635_D634Y] the SH2 binding enrichment was 1.62. Work on LLIVEYAKYGS [RET_Y806] yielded an SH2 binding enrichment of 1.49. In the case of SGPRRYTIATL [TTR_Y125_A129T], the SH2 binding enrichment is reported as 0.539. TNDRLYLRSLE [MTM1_Y71_Y68D] gave an SH2 binding enrichment of 0.616. With GGPTYYIDTNA [ACTL6A_Y69] the SH2 binding enrichment was 0.679. RAFRHYLLKQK [SCN2A_Y1919_R1918H_YF] was tested, and the SH2 binding enrichment was 0.468. With RTCSSYAIEKI [PARP15_Y520] the SH2 binding enrichment was 0.563. TTPGPYRSIFF [MPG_Y71_YF] showed an SH2 binding enrichment of 0.688. With PPPPAYDDMAQ [TNK2_Y635_V638M] the SH2 binding enrichment was 1.37. With PVKAAYQKVVA [HBB_Y131_Q128K] the SH2 binding enrichment was 0.615. SVVVPCEPPEV [TP53_Y220_Y220C] gave an SH2 binding enrichment of 0.571. Work on RSAGKYDVFFI [MECP2_Y120_L124F_YF] yielded an SH2 binding enrichment of 1.11. For KDHPDYKFQRR [SOX10_Y171_P175R_YF], the SH2 binding enrichment was 0.736. With EATKVYLDDPT [G6PD_Y322_G321V] the SH2 binding enrichment was 0.534. EATKGHLDDPT [G6PD_Y322_Y322H] was tested, and the SH2 binding enrichment was 0.598. With SLESAYPEVSQ [TTF1_Y357_G360V] the SH2 binding enrichment was 0.482. With RYLTRYIYNRE [HLA-DQB1_Y62_V59L] the SH2 binding enrichment was 0.627. FGYPGYQCKHY [TIMP3_Y177_S179C] was tested, and the SH2 binding enrichment was 0.805. Work on ESMQSYDLDYP [UNC13B_Y243_D238E] yielded an SH2 binding enrichment of 0.851. Sequence DEEFEYMNRRR [ERBB3_Y1199_YF] has an SH2 binding enrichment of 0.521. In the case of AHAGEHGAEAL [HBA1_Y25_Y25H], the SH2 binding enrichment is reported as 0.484. Sequence MSSHHCDYKKY [ZNF445_Y428_Y428C] has an SH2 binding enrichment of 0.553. KPLMPCMRYSR [SMARCE1_Y73_Y73C] gave an SH2 binding enrichment of 0.485. Work on PSDPSYEDTRE [BMPR1A_Y467_M470T] yielded an SH2 binding enrichment of 1.73. Sequence QQPGPYDRPGA [HNRNPH2_Y210_R206Q] has an SH2 binding enrichment of 0.857. With IKAGAYDFPSL [CAMK2A_Y230_P235L] the SH2 binding enrichment was 4.76.
